Laboratory results from publication PMC6378141 (Molecular psychiatry, 2018).

Target: T1, D2R(L123W:R132L), short isoform, fused to Rluc8 (human, UniProt P14416-2 1-414, L123W | R132L)
T1 sequence: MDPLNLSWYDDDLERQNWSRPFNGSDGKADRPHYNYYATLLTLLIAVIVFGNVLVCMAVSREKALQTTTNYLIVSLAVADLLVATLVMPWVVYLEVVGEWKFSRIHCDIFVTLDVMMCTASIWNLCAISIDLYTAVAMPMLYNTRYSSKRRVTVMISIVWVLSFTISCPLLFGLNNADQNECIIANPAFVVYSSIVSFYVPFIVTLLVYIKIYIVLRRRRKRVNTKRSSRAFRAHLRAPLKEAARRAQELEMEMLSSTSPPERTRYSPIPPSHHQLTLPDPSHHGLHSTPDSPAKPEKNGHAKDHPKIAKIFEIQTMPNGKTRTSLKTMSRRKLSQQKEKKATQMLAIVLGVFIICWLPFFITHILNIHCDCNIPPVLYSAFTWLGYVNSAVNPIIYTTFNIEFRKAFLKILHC
Assay: FRET or BRET

B1: bovine arrestin-2 fused to mVenus at its N-terminus (natural protein)
chain: MGDKGTRVFKKASPNGKLTVYLGKRDFVDHIDLVEPVDGVVLVDPEYLKERRVYVTLTCAFRYGREDLDVLGLTFRKDLFVANVQSFPPAPEDKKPLTRLQERLIKKLGEHAYPFTFEIPPNLPCSVTLQPGPEDTGKACGVDYEVKAFCAENLEEKIHKRNSVRLVIRKVQYAPERPGPQPTAETTRQFLMSDKPLHLEASLDKEIYYHGEPISVNVHVTNNTNKTVKKIKISVRQYADICLFNTAQYKCPVAMEEADDTVAPSSTFCKVYTLTPFLANNREKRGLALDGKLKHEDTNLASSTLLREGANREILGIIVSYKVKVKLVVSRGGLLGDLASSDVAVELPFTLMHPKPKEEPPHREVPEHETPVDTNLIELDTNDDDIVFEDFARQRLKGMKDDKEEEEDGTGSPRLNDR
B1 was tested, and the “maximal DA-induced recruitment, % of D2R-WT” value was 132 % of D2R-WT.
